The values below come from PMC7904744, “Poly(ADP-ribosyl)ation enhances HuR oligomerization and contributes to pro-inflammatory gene mRNA stabilization”.

Conditions in all cases: protein: recombinant; tags: GST; label: 5' biotin
One data set concerns the target GST-HuR (UniProt Q15717 1-326). In words: EMSA; unmodified; multiple shifted bands (oligomer); EMSA: 3 mM MgCl2, 40 mM KCl, 5% glycerol, 2 mM DTT, 2 ug tRNA, 5 nM RNA, 40 min room temperature; pH not stated; 6% native acrylamide gel. In general terms: Mobility shift assays separate free from complexed probe on a gel.
Data set [1] has as its target T1, GST-HuR-RRM1 (UniProt Q15717 20-98). In words: EMSA; no multiple shifted bands (Fig 4d); EMSA: 3 mM MgCl2, 40 mM KCl, 5% glycerol, 2 mM DTT, 2 ug tRNA, 5 nM RNA, 40 min room temperature; pH not stated; 6% native acrylamide gel.
Data set [2] deals with T1, GST-HuR-RRM1. In words: EMSA; EMSA: 3 mM MgCl2, 40 mM KCl, 5% glycerol, 2 mM DTT, 2 ug tRNA, 5 nM RNA, 40 min room temperature; pH not stated; 6% native acrylamide gel.

T1 sequence (Q15717 20-98): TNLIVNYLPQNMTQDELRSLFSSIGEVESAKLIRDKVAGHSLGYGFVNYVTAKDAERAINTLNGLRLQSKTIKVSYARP
Chain of GST-HuR (Q15717 whole entry): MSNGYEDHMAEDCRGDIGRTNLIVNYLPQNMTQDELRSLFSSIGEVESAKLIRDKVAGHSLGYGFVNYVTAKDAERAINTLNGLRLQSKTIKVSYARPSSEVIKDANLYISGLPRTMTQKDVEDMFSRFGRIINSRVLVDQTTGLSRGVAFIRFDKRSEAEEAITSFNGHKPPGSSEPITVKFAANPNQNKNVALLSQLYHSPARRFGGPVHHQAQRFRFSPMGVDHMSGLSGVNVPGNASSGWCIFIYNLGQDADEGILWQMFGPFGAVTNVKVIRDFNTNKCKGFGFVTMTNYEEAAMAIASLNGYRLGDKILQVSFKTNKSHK

Consider CUAUGUAUUUAUUUAUUUAUUAAUU (ssRNA) [Cxcl2 ARE RNA oligo], for which the binding result with GST-HuR and with GST-HuR-RRM1 [1] was “binds” each time.

AUUUAUUUAUUUAUUUAUUUAUUUA (ssRNA) [AU-rich RNA oligo (tandem ARE repeat)]: the binding result in the data set with GST-HuR-RRM1 [2] and with GST-HuR was “binds” in each case.
